Measured values taken from patent US6153740A, “cDNA encoding nucleoside transporter” (University of Alberta, priority 1997, dated 2000).

Key:
[1] = substrate: Nc1ccn([C@H]2CC[C@@H](CO)O2)c(=O)n1; test: uptake/influx of radiolabelled nucleosides in Xenopus oocytes injected with pQQH1 (rat CNT1) cRNA; assay type: cell-based; details: other: rate versus concentration studies, pH 7.5, 20.0 °C
Experimental: Oocytes were injected with water or RNA transcribed in vitro from the nucleoside transporter cDNA (pQQH1). Each value represents the mean ±S.E. of 8-10 oocytes. […] Apparent Km and Vmax values were determined by non-linear regression analysis (ENZFITTER, Elsevier-Biosoft). […] Panel d: thymidine transport in oocytes injected with pQQH1 cRNA. For panels c and d, the permeant concentration was 10 μM and competing nonradioactive nucleosides were present at a concentration of 1 mM. Fluxes were not corrected for the small (<0.1%) contribution of endogenous activity. […]
Expression of cNT1 in Oocytes-Plasmid pQQH1 DNA was linearized with Xbal and transcribed with T7 polymerase in the presence of the m^7 GpppG cap using the MEGAscript (Ambion) transcription system. […] Nucleoside uptake was measured after 3 days and was traced with the respective ^3 H-labeled nucleoside (Moravek Biochemicals)(20 μC/ml), which was purified by high performance liquid chromatography before use. […] Individual oocytes were dissolved in 5% SDS for quantitation of oocyte-associated ^3 H by liquid scintillation counting (LS 6000 IC, Beckman).
Defolliculated oocytes (Huang et al. 1993) were injected with either 10 nl of water containing 10 ng RNA transcript or 10 nl of water alone. Nucleoside uptake was measured after 3 d and was traced with the respective [^3 H] or [^14 C]nucleoside (Moravek Biochemicals)(5 μC 3H/ml, 1 μC 14C/ml). […]

[2] = substrate: O=c1ccn([C@@H]2O[C@H](CO)[C@@H](O)[C@H]2O)c(=O)[nH]1; test: cells, lysate or membranes; details: other: rat CNT1, 20° C., pH 7.5

B1: CNT1 (Rattus norvegicus) (protein)
chain: MADNTQRQRESISLTPMAHGLENMGAEFLESMEEGRLPHSHSSLPEGEGGLNKAERKAFSRWRSLQPTVQARSFCREHRQLFGWICKGLLSTACLGFLMVACLLDLQRALALLIITCVVLVFLAYDLLKRLLGSKLRRCVKFQGHSCLSLWLKRGLALAAGVGLILWLSLDTAQRPEQLVSFAGICVFLVLLFAGSKHHRAVSWRAVSWGLGLQFVLGLFVIRTEPGFIAFQWLGDQIQVFLSYTEAGSSFVFGEALVKDVFAFQVLPIIIFFSCVMSVLYYLGLMQWVILKIAWLMQVTMGTSATETLSVAGNIFVSQTEAPLLIRPYLADMTLSEVHVVMTGGYATIAGSLLGAYISFGIDAASLIAASVMAAPCALALSKLVYPEVEESKFRSENGVKLTYGDAQNLLEAASAGAAISVKVVANIAANLIAFLAVLAFVNAALSWLGDMVDIQGLSFQLICSYVLRPVAFLMGVAWEDCPVVAELLGIKFFLNEFVAYQELSQYKQRRLAGAEEWLGDKKQWISVRAEILTTYALCGFANFSSIGIMLGGLTSLVPQRRSDFSQIVLRALITGAFVSLLNACVAGILYVPRGVEVDCVSLLNQTVSSSSFEVYLCCRQVFQSTSSEFSQVALDNCCRFYNHTVCT
notes: identified as pQQH1, has an open reading frame encoding a 648-amino acid protein; expressed in transfected cells; host or cells: Xenopus oocytes injected with pQQH1 cRNA
With B1 the Km [1] was 510 µM and the Km [2] was 37 µM.
